Test results: publication PMC7442955, “Biochemical and functional characterization of a meiosis-specific Pch2/ORC AAA+ assembly” (Life Science Alliance, 2020)

T1: His–Orc1 (subunit of the insect cell–purified ORC) (budding yeast, UniProt P54784 1-914)
T1 construct: Orc1, budding yeast; Stood in the assays as a subunit of m16; source: Tnao38 insect cells, co-expressed with Orc2-6, purified as part of His–ORC
T1 sequence (looked up): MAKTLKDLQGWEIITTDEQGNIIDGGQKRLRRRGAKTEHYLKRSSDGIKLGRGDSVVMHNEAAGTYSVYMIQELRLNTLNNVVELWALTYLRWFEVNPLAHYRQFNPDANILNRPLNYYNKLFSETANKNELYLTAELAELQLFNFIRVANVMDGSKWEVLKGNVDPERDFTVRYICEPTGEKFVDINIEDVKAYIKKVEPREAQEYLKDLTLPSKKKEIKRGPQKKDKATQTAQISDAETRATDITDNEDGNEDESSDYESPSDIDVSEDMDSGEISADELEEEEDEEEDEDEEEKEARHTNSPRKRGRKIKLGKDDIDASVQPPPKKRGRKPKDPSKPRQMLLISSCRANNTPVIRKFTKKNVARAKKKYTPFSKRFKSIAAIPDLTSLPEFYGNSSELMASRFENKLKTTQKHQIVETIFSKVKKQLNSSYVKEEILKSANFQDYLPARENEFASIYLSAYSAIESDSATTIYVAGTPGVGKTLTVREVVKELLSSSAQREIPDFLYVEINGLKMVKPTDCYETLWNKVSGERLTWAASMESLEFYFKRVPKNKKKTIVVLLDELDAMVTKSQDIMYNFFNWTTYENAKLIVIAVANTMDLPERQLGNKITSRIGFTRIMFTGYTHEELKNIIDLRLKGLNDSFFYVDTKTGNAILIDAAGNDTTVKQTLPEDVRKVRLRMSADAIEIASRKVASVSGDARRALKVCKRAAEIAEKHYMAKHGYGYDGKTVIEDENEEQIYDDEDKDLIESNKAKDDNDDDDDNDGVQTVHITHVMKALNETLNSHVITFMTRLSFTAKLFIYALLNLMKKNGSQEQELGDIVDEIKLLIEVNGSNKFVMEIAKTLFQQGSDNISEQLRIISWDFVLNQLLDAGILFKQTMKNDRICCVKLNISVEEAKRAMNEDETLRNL

T2: 6xHis–Hop1 (budding yeast, UniProt P20050 1-605)
T2 construct: Hop1, HORMA domain protein, substrate of Pch2; source: E. coli BL21 RIPL, purified (TALON, heparin, SEC); not shown: 6xHis, N-terminal, kept
T2 sequence (looked up): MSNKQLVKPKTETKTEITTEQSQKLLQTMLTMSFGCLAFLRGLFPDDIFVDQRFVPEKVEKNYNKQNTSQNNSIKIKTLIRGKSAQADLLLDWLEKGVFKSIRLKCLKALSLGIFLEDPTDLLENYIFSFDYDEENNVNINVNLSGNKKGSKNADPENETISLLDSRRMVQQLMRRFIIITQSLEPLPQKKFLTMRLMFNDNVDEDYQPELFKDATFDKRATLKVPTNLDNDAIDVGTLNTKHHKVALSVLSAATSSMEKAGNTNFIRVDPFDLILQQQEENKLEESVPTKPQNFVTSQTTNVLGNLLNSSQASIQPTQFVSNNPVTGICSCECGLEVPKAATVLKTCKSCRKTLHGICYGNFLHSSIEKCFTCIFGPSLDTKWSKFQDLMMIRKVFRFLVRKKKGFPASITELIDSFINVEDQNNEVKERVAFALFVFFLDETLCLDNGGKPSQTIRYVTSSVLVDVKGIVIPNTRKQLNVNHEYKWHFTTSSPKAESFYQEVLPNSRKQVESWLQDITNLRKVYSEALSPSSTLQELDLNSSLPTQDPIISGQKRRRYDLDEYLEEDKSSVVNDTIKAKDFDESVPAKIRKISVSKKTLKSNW

B1: His–MBP–Pch2 (natural protein, budding yeast, UniProt P38126 1-564, looked up)
chain: MSYIVDLQVRGSSLRVIKCMFREDEQISSLHSGSDSKQNSNKKLGEFLNLLKAVVKRKLESFPKDRLKTSIITGQELMREGQGSIEIKDPPTEAQQHLIRSLAKVLLHQFSSINGKVNTVNEGQDNLFLSLFVKKISIEQQSTSHVSIKLNFHEKINLGQHIDSILDSEETNESDTYHMGSVDEFIIYPFCCLEEQDELKNGSILSTEFDKIDLELDEDDGFEGETLNNCINSVGNFDIPLSKQTLNLVNISYLPGTTFEGQWESLYFGNNIKERLYSYATISLKIARFKQTGDSNQEDITTLITNNKLLLVHGPPGTGKTTLCKALCQKLSVRREFSDGSDTIDTNYKGIIIELSCARIFSKWFGESSKNISIVFKDIEELLKVNEGRGIFICLLIDEVEAIASSRTNLSSRNESTDGIRVVNTLLTQLDRLKKYHNFLALATSNLLDSLDDAFVDRADGVFYVGNPTAEGILHILKVCIEEMITSGIILFHARSTGVKFFNKYQDILRKIAIKCSTVDISGRTIRKLPLMCLSEYFRTFPVDDDEFVLALAMSARKLSAARK
notes: Pch2, budding yeast; from codon-optimized cDNA in a pLIB–His–MBP vector; Apparent hexamer by SEC, with a minor fraction that appears monomeric; also called purified Pch2; full-length Pch2; source: Tnao38 insect cells (baculovirus), purified (TALON, amylose, SEC); not shown: His, N-terminal, kept; MBP, N-terminal, kept
B2: His–MBP–Pch2-2-144 (domain or fragment, budding yeast, UniProt P38126 2-144, looked up)
chain: SYIVDLQVRGSSLRVIKCMFREDEQISSLHSGSDSKQNSNKKLGEFLNLLKAVVKRKLESFPKDRLKTSIITGQELMREGQGSIEIKDPPTEAQQHLIRSLAKVLLHQFSSINGKVNTVNEGQDNLFLSLFVKKISIEQQSTS
notes: Pch2, budding yeast, part of the NH2-terminal domain; Monomer by SEC; also called minimal NH2-terminal fragment of Pch2; source: Tnao38 insect cells (baculovirus), purified (TALON, amylose, SEC); not shown: His, N-terminal, kept; MBP, N-terminal, kept
B3: Orc5 (subunit of the insect cell–purified ORC) (natural protein, budding yeast, UniProt P50874 1-479, looked up)
chain: MNVTTPEVAFREYQTNCLASYISADPDITPSNLILQGYSGTGKTYTLKKYFNANPNLHAVWLEPVELVSWKPLLQAIARTVQYKLKTLYPNIPTTDYDPLQVEEPFLLVKTLHNIFVQYESLQEKTCLFLILDGFDSLQDLDAALFNKYIKLNELLPKDSKINIKFIYTMLETSFLQRYSTHCIPTVMFPRYNVDEVSTILVMSRCGELMEDSCLRKRIIEEQITDCTDDQFQNVAANFIHLIVQAFHSYTGNDIFALNDLIDFKWPKYVSRITKENIFEPLALYKSAIKLFLSTDDNLSENGQGESAITTNRDDLENSQTYDLSIISKYLLIASYICSYLEPRYDASIFSRKTRIIQGRAAYGRRKKKEVNPRYLQPSLFAIERLLAIFQAIFPIQGKAESGSLSALREESLMKANIEVFQNLSELHTLKLIATTMNKNIDYLSPKVRWKVNVPWEIIKEISESVHFNISDYFSDIHE
notes: Orc5, budding yeast; Stood in the assays as a subunit of m16; source: Tnao38 insect cells, co-expressed, purified as part of His–ORC

How the values were obtained:
[1] = molecular target: T1, His–Orc1 (subunit of the insect …); test: cross-linking; XL-MS: 0.75 μM His–MBP–Pch2 with 1.5 μM His–ORC, 30 mM HEPES pH 7.5, 150 mM NaCl, 2 mM TCEP, 90 min at 4°C; 3 mM DSBU, 25°C, 1 h; MeroX, 2% FDR; settings: both partners purified
[2] = molecular target: the molecule itself; test: SEC; single purified proteins: His–MBP–Pch2 (2 μM), His–MBP–Pch2-243-564 (2 μM), His–MBP–Pch2-2-144 (6 μM; Superdex 200 5/150 GL); 30 mM HEPES pH 7.5, 150 mM NaCl, 3% glycerol, 2 mM TCEP, 1 mM MgCl2
[3] = molecular target: T3, ORC (Orc1-6, with Orc1 carrying a CBP tag) purified from budding yeast (budding yeast, UniProt P54784 1-914; P32833 1-620; P54790 1-616; P54791 1-529; P50874 1-479; P38826 …); test: pull-down; ORC from budding yeast bound to calmodulin beads, His–MBP–Pch2 added for 1 h on ice; 30 mM HEPES pH 7.5, 200 mM NaCl, 2 mM CaCl2; with or without MgCl2 and ADP, ATP or ATP analogs; Coomassie staining; settings: both partners purified
T3 construct: Orc1, budding yeast; Orc2, budding yeast; Orc3, budding yeast; Orc4, budding yeast; Orc5, budding yeast; Orc6, budding yeast; also called budding yeast ORC (CBP–Orc1); budding yeast–purified ORC; source: purified from α-factor–arrested vegetative budding yeast cells (yGV3358), concentrated on calmodulin beads; copies: + + + + +
T3 sequence (P32833 whole entry, chain 2 of 4): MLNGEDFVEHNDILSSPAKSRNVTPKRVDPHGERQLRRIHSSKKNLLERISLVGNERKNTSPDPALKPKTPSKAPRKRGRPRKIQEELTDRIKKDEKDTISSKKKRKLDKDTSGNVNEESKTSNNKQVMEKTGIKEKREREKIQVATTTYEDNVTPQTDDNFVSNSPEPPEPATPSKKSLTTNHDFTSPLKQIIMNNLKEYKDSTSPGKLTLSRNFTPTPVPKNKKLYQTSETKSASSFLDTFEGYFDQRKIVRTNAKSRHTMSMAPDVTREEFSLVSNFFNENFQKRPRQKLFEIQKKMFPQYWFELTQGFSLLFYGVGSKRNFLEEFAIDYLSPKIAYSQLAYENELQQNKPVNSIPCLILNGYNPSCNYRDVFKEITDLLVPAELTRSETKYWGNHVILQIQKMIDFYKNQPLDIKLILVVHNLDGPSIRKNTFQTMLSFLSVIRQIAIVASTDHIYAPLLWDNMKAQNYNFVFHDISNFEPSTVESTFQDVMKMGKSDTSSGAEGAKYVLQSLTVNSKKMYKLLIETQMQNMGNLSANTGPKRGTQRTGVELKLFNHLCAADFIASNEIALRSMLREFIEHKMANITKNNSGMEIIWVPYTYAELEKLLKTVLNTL
T3 sequence (P54790 whole entry, chain 3 of 4): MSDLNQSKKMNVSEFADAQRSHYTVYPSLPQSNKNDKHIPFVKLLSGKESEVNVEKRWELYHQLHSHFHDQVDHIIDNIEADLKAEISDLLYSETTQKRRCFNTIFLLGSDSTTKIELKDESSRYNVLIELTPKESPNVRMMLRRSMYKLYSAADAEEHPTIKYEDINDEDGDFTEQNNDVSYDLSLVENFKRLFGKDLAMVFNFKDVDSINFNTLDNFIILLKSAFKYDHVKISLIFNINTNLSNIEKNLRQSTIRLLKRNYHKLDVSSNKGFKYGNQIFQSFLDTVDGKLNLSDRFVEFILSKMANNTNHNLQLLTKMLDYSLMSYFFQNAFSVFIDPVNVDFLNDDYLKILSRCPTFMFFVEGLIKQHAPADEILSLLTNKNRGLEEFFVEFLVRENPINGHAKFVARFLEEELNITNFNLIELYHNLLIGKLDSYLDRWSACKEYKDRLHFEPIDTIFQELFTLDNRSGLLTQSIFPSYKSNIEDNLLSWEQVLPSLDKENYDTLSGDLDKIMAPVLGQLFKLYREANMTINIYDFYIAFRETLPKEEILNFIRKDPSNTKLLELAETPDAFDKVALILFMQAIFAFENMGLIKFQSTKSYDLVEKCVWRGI
T3 sequence (P54791 whole entry, chain 4 of 4): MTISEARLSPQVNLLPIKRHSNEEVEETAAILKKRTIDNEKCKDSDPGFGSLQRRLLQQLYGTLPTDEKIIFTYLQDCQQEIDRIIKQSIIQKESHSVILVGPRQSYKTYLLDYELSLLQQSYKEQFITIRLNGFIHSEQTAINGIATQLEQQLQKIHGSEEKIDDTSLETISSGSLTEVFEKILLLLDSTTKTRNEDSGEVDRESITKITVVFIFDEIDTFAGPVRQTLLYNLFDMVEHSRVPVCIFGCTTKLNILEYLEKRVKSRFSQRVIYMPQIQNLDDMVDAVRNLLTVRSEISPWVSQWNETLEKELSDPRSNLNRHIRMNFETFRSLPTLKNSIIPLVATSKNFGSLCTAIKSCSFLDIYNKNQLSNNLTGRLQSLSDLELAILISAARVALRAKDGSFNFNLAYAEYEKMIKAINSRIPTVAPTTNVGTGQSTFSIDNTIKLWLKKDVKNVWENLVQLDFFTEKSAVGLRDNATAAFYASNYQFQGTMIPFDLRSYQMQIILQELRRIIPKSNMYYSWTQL
T3 sequence (P38826 whole entry, chain 6 of 4): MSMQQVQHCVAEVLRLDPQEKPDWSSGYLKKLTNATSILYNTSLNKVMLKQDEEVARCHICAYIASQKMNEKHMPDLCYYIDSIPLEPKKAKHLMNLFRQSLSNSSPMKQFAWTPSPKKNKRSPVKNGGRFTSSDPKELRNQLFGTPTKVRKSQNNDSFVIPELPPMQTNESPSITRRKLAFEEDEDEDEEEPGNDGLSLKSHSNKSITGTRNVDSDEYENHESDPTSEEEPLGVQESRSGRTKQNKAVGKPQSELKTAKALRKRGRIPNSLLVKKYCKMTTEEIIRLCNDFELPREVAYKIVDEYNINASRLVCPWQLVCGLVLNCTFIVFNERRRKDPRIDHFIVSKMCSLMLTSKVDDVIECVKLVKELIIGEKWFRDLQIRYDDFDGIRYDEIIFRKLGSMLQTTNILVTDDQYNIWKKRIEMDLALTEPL

6xHis–Hop1 = molecular target: T2, 6xHis–Hop1; test: pull-down; His–MBP–Pch2 (1 μM, as hexamer) on amylose beads, 6 μM Hop1 added, 90 min on ice; 50 mM Tris pH 7.5, 50 mM NaCl, 10 mM imidazole, 0.1% Tween-20, 1 mM MgCl2; with or without 200 μM ATP or ATPγS; Coomassie staining; settings: both partners purified
[4] = molecular target: T4, His–ORC (His–Orc1, Orc2-6) purified from insect cells (budding yeast, UniProt P54784 1-914; P32833 1-620; P54790 1-616; P54791 1-529; P50874 1-479; P38826 …, a fraction of Orc6 phosphorylated (double band, collapsed by λ-phosphatase); sites not stated); test: pull-down; His–MBP–Pch2 (1 μM as hexamer) or fragments (6 μM of 2-144) on amylose beads, 1 μM ORC added, 90 min on ice; 30 mM HEPES pH 7.5, 150 mM NaCl, 10 mM imidazole, 0.1% Tween-20, 10 mM MgCl2; Coomassie staining or Western blot (α-MBP, α-ORC); settings: both partners purified
T4 construct: Orc1, budding yeast; Orc2, budding yeast; Orc3, budding yeast; Orc4, budding yeast; Orc5, budding yeast; Orc6, budding yeast; Total size about 414 kD as printed; also called His–Orc1-6; origin recognition complex; source: Tnao38 insect cells coinfected with two baculoviruses, purified (His-tag resin, SEC); copies: + + + + +
T4 sequence (P32833 whole entry, chain 2 of 4, the tested form may be a part): as the sequence (P32833 whole entry, chain 2 of 4) above
T4 sequence (P54790 whole entry, chain 3 of 4, the tested form may be a part): as the sequence (P54790 whole entry, chain 3 of 4) above
T4 sequence (P54791 whole entry, chain 4 of 4, the tested form may be a part): as the sequence (P54791 whole entry, chain 4 of 4) above
T4 sequence (P38826 whole entry, chain 6 of 4, the tested form may be a part): as the sequence (P38826 whole entry, chain 6 of 4) above

[5] = molecular target: T5, dephosphorylated His–ORC (λ-phosphatase treated) (budding yeast, UniProt P54784 1-914; P32833 1-620; P54790 1-616; P54791 1-529; P50874 1-479; P38826 …); test: as above; settings: both partners purified
T5 construct: Orc1, budding yeast; as in m16; Orc2, budding yeast; Orc3, budding yeast; Orc4, budding yeast; Orc5, budding yeast; Orc6, budding yeast; as in m16, dephosphorylated (single band); also called dephosphorylated ORC; source: Tnao38 insect cells, purified, then treated with λ-phosphatase at 4°C overnight; copies: + + + + +
T5 sequence (P32833 whole entry, chain 2 of 4): as the sequence (P32833 whole entry, chain 2 of 4) above
T5 sequence (P54790 whole entry, chain 3 of 4): as the sequence (P54790 whole entry, chain 3 of 4) above
T5 sequence (P54791 whole entry, chain 4 of 4): as the sequence (P54791 whole entry, chain 4 of 4) above
T5 sequence (P38826 whole entry, chain 6 of 4): as the sequence (P38826 whole entry, chain 6 of 4) above

His–MBP–Pch2 = molecular target: B1; test: cross-linking; XL-MS: 0.75 μM His–MBP–Pch2 with 1.5 μM His–ORC, 30 mM HEPES pH 7.5, 150 mM NaCl, 2 mM TCEP, 90 min at 4°C; 3 mM DSBU, 25°C, 1 h; MeroX, 2% FDR; settings: both partners purified

Binder | binding result [1] | stoichiometry N [2] | binding result [3] | binding result (6xHis–Hop1) | binding result [4] | binding result [5] | binding result (His–MBP–Pch2)
B1 | binds | 6 | binds | binds | binds | binds | 
B2 |  |  |  |  | binds |  | 
B3 |  |  |  |  |  |  | binds
